Laboratory results published in patent publication US20220119534A1 (DRAGONFLY THERAPEUTICS, published 2022).
Several values for one entry are separate records, joined by “and”; a condition that tells them apart may be missing. Equal entries are not always repeated.

Tests used:
[1] = target: T1, Human CD16a V158 (FcγRIIIa V158) (human, UniProt P08637 17-208, biotinylated (site not stated)); test: SPR; biotinylated CD16a V158 captured on SA chip, TriNKET as analyte; 1:1 kinetic fit; control, n=3
T1 construct: V158 is the allele name in mature numbering; also called hCD16aV; hCD16a V158
T1 sequence (P08637 17-208 F176V limits assumed): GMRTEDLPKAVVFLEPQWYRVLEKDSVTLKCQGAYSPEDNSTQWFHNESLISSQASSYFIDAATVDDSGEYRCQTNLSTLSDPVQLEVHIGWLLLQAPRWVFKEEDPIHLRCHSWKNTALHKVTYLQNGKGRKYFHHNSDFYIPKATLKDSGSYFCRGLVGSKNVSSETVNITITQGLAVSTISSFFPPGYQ

[2] = target: T1, Human CD16a V158 (FcγRIIIa V158); test: SPR; biotinylated CD16a V158 captured on SA chip, TriNKET as analyte; 1:1 kinetic fit; control sample, n=3
recombinant human FcRn = target: T2, recombinant human FcRn (human, UniProt P55899 24-297; P61769 21-119); test: SPR 25C, pH 6.0, steady state; pH 6.0; first replicate
T2 construct: also called hFcRn
T2 sequence (P55899 24-297 limits assumed, chain 1 of 2): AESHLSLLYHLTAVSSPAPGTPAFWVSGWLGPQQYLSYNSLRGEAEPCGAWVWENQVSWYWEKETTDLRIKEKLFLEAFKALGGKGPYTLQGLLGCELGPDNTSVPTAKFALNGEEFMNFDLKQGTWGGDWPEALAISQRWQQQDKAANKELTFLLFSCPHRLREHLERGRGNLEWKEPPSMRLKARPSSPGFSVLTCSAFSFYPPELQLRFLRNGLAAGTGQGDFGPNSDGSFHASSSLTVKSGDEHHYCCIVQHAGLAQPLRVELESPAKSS
T2 sequence (P61769 21-119 limits assumed, chain 2 of 2): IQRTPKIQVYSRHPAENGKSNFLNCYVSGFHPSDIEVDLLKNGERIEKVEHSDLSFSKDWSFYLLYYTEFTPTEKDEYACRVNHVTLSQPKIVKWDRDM

BCMA = target: T3, BCMA; test: SPR specificity test; unrelated recombinant antigen at up to 500 nM
T3 chain: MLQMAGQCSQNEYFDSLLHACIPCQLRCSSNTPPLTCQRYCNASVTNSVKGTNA

HER2 = test: as above
CD33 = target: T4, CD33; test: as above
T4 construct: recombinant protein

[3] = target: T5, human CLEC12A on cells (HL60, PL21, Ba/F3-hCLEC12A) (human, UniProt Q5QGZ9 1-265); test: flow cytometry, Ba/F3-hCLEC12A cells
T5 construct: Endogenous on the AML lines HL60 and PL21; brought into mouse Ba/F3 cells by retroviral transduction; The cell line stands under assay; also called CLL-1
T5 sequence: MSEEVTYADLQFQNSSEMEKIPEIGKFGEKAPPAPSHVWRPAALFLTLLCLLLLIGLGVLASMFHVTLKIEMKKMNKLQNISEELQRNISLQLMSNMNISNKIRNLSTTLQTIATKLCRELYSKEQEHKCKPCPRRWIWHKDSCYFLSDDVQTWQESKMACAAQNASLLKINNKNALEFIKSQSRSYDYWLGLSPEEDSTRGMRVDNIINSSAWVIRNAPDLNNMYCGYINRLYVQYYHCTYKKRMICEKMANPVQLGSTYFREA

mFc-hNKG2D [4] = target: T6, mFc-hNKG2D (human, UniProt P26718 73-216); test: SPR; control sample (pH 5 stress study)
T6 construct: extracellular domain; Recombinant mFc-tagged NKG2D dimer, made in house; also called human NKG2D; not shown: mouse Fc tag
T6 sequence (looked up): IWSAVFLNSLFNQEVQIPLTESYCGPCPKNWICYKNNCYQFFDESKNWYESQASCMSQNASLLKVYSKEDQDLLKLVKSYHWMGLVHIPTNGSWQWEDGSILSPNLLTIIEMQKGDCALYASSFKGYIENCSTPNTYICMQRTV

mFc-hNKG2D [5] = target: T6, mFc-hNKG2D; test: SPR, 37 C, mFc-hNKG2D captured, 1:1 kinetic fit
De-glycosylated CLEC12A = target: T7, De-glycosylated CLEC12A (human, UniProt Q5QGZ9 65-265, treated with PNGase F (N-linked glycans removed)); test: SPR, de-glycosylated CLEC12A; average of 3 replicates
T7 construct: Recombinant human CLEC12A after PNGase F; also called de-glycosylated hCLEC12A
T7 sequence: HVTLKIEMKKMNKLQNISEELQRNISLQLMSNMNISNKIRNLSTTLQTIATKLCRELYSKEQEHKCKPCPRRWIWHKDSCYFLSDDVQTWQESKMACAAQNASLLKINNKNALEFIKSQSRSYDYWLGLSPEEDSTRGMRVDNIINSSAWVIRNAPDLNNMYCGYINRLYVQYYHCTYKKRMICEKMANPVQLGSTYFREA

mFc-hNKG2D [6] = target: T6, mFc-hNKG2D; test: SPR, 37 C, mFc-hNKG2D captured, 1:1 kinetic fit; average

B1: F3'-1602 TriNKET (bispecific antibody, human IgG1, kappa)
chain: QLQLQESGPGLVKPSETLSLTCTVSGFSLTNYGLHWIRQPPGKCLEWIGVIWSGGKTDYNPSLKSRVTISKDTSKNQFSLKLSSVQAADTAVYYCAKYDYDDSLDYWGQGTLVTVSSGGGGSGGGGSGGGGSGGGGSDIQMTQSPSSLSASVGDRVTITCHASQNINFWLSWYQQKPGKAPKLLIYEASNLHTGVPSRFSGSGSGTRFTLTISSLQPEDIATYYCQQSHSYPLTFGCGTKLEIKGSDKTHTCPPCPAPELLGGPSVFLFPPKPKDTLMISRTPEVTCVVVDVSHEDPEVKFNWYVDGVEVHNAKTKPREEQYNSTYRVVSVLTVLHQDWLNGKEYKCKVSNKALPAPIEKTISKAKGQPREPRVYTLPPCRDELTKNQVSLTCLVKGFYPSDIAVEWESNGQPENNYKTTPPVLVSDGSFTLYSKLTVDKSRWQQGNVFSCSVMHEALHNHYTQKSLSLSPG
heavy: EVQLVESGGGLVKPGGSLRLSCAASGFTFSSYSMNWVRQAPGKGLEWVSSISSSSSYIYYADSVKGRFTISRDNAKNSLYLQMNSLRAEDTAVYYCARGAPIGAAAGWFDPWGQGTLVTVSSASTKGPSVFPLAPSSKSTSGGTAALGCLVKDYFPEPVTVSWNSGALTSGVHTFPAVLQSSGLYSLSSVVTVPSSSLGTQTYICNVNHKPSNTKVDKKVEPKSCDKTHTCPPCPAPELLGGPSVFLFPPKPKDTLMISRTPEVTCVVVDVSHEDPEVKFNWYVDGVEVHNAKTKPREEQYNSTYRVVSVLTVLHQDWLNGKEYKCKVSNKALPAPIEKTISKAKGQPREPQVCTLPPSRDELTENQVSLTCLVKGFYPSDIAVEWESNGQPENNYKTTPPVLDSDGSFFLYSWLTVDKSRWQQGNVFSCSVMHEALHNHYTQKSLSLSPG
light: DIQMTQSPSSVSASVGDRVTITCRASQGISSWLAWYQQKPGKAPKLLIYAASSLQSGVPSRFSGSGSGTDFTLTISSLQPEDFATYYCQQGVSFPRTFGGGTKVEIKRTVAAPSVFIFPPSDEQLKSGTASVVCLLNNFYPREAKVQWKVDNALQSGNSQESVTEQDSKDSTYSLSSTLTLSKADYEKHKVYACEVTHQGLSSPVTKSFNRGEC
notes: Trispecific F3' format: CLEC12A scFv-Fc paired with NKG2D Fab-Fc; Stressed and control samples of the stability studies are the same molecule; also called AB0237
B1 gave a Kd [1] of 212 nM, a koff [1] of 0.024 s⁻¹ and a kon [1] of 113000 M⁻¹ s⁻¹. It also gave a Kd [2] of 212 nM, a koff [2] of 0.024 s⁻¹ and a kon [2] of 113000 M⁻¹ s⁻¹.

B2: F3'-1602 TriNKET (other)
chain: QLQLQESGPGLVKPSETLSLTCTVSGFSLTNYGLHWIRQPPGKCLEWIGVIWSGGKTDYNPSLKSRVTISKDTSKNQFSLKLSSVQAADTAVYYCAKYDYDDSLDYWGQGTLVTVSSGGGGSGGGGSGGGGSGGGGSDIQMTQSPSSLSASVGDRVTITCHASQNINFWLSWYQQKPGKAPKLLIYEASNLHTGVPSRFSGSGSGTRFTLTISSLQPEDIATYYCQQSHSYPLTFGCGTKLEIKGSDKTHTCPPCPAPELLGGPSVFLFPPKPKDTLMISRTPEVTCVVVDVSHEDPEVKFNWYVDGVEVHNAKTKPREEQYNSTYRVVSVLTVLHQDWLNGKEYKCKVSNKALPAPIEKTISKAKGQPREPRVYTLPPCRDELTKNQVSLTCLVKGFYPSDIAVEWESNGQPENNYKTTPPVLVSDGSFTLYSKLTVDKSRWQQGNVFSCSVMHEALHNHYTQKSLSLSPG
heavy: EVQLVESGGGLVKPGGSLRLSCAASGFTFSSYSMNWVRQAPGKGLEWVSSISSSSSYIYYADSVKGRFTISRDNAKNSLYLQMNSLRAEDTAVYYCARGAPIGAAAGWFDPWGQGTLVTVSSASTKGPSVFPLAPSSKSTSGGTAALGCLVKDYFPEPVTVSWNSGALTSGVHTFPAVLQSSGLYSLSSVVTVPSSSLGTQTYICNVNHKPSNTKVDKKVEPKSCDKTHTCPPCPAPELLGGPSVFLFPPKPKDTLMISRTPEVTCVVVDVSHEDPEVKFNWYVDGVEVHNAKTKPREEQYNSTYRVVSVLTVLHQDWLNGKEYKCKVSNKALPAPIEKTISKAKGQPREPQVCTLPPSRDELTENQVSLTCLVKGFYPSDIAVEWESNGQPENNYKTTPPVLDSDGSFFLYSWLTVDKSRWQQGNVFSCSVMHEALHNHYTQKSLSLSPG
light: DIQMTQSPSSVSASVGDRVTITCRASQGISSWLAWYQQKPGKAPKLLIYAASSLQSGVPSRFSGSGSGTDFTLTISSLQPEDFATYYCQQGVSFPRTFGGGTKVEIKRTVAAPSVFIFPPSDEQLKSGTASVVCLLNNFYPREAKVQWKVDNALQSGNSQESVTEQDSKDSTYSLSSTLTLSKADYEKHKVYACEVTHQGLSSPVTKSFNRGEC
notes: CLEC12A scFv-Fc, NKG2D A49MI Fab-Fc, human IgG1 Fc; also called AB0237
B2 was tested, and the Kd (recombinant human FcRn) was 1300 nM, the “Response (RU)” value (BCMA) was 0.2 RU and the “Response (RU)” value (HER2) was 0.1 RU. For the same binder, the “Response (RU)” value (CD33) was 0.2 RU.

B3: AB0192 TriNKET (other)
chain: EVQLVESGGGVVQPGGSLRLSCAASGFTFNAFGMHWVRQAPGKCLEWVAFISSGSTSIYYANTVKGRFTISRDNSKNTLYLQMNSLRAEDTAVYYCARDGYPTGGAMDYWGQGTSVTVSSGGGGSGGGGSGGGGSGGGGSDIQMTQSPSSLSASVGDRVTITCKASQDIYNYLSWFQQKPGKAPKPLIYRANILVSGVPSRFSGSGSGQDYTFTISSLQPEDIATYYCLQFDAFPFTFGCGTKLEIKGSDKTHTCPPCPAPELLGGPSVFLFPPKPKDTLMISRTPEVTCVVVDVSHEDPEVKFNWYVDGVEVHNAKTKPREEQYNSTYRVVSVLTVLHQDWLNGKEYKCKVSNKALPAPIEKTISKAKGQPREPRVYTLPPCRDELTKNQVSLTCLVKGFYPSDIAVEWESNGQPENNYKTTPPVLVSDGSFTLYSKLTVDKSRWQQGNVFSCSVMHEALHNHYTQKSLSLSPG
heavy: EVQLVESGGGLVKPGGSLRLSCAASGFTFSSYSMNWVRQAPGKGLEWVSSISSSSSYIYYADSVKGRFTISRDNAKNSLYLQMNSLRAEDTAVYYCARGAPIGAAAGWFDPWGQGTLVTVSSASTKGPSVFPLAPSSKSTSGGTAALGCLVKDYFPEPVTVSWNSGALTSGVHTFPAVLQSSGLYSLSSVVTVPSSSLGTQTYICNVNHKPSNTKVDKKVEPKSCDKTHTCPPCPAPELLGGPSVFLFPPKPKDTLMISRTPEVTCVVVDVSHEDPEVKFNWYVDGVEVHNAKTKPREEQYNSTYRVVSVLTVLHQDWLNGKEYKCKVSNKALPAPIEKTISKAKGQPREPQVCTLPPSRDELTENQVSLTCLVKGFYPSDIAVEWESNGQPENNYKTTPPVLDSDGSFFLYSWLTVDKSRWQQGNVFSCSVMHEALHNHYTQKSLSLSPG
light: DIQMTQSPSSVSASVGDRVTITCRASQGISSWLAWYQQKPGKAPKLLIYAASSLQSGVPSRFSGSGSGTDFTLTISSLQPEDFATYYCQQGVSFPRTFGGGTKVEIKRTVAAPSVFIFPPSDEQLKSGTASVVCLLNNFYPREAKVQWKVDNALQSGNSQESVTEQDSKDSTYSLSSTLTLSKADYEKHKVYACEVTHQGLSSPVTKSFNRGEC
notes: the condition stands under assay; also called AB0192 Lot AB0192-005
In the case of B3, the EC50 [3] is reported as 1.33 nM, the “FOB (fold over background)” value [3] is reported as 325 fold and the Kd (mFc-hNKG2D [4]) is reported as 588 nM. The koff (mFc-hNKG2D [4]) was 0.122 s⁻¹, the kon (mFc-hNKG2D [4]) was 208000 M⁻¹ s⁻¹ and the koff (mFc-hNKG2D [5]) was 0.143 s⁻¹ and 0.153 s⁻¹. The kon (mFc-hNKG2D [5]) was 186000 M⁻¹ s⁻¹ and 196000 M⁻¹ s⁻¹ and 181000 M⁻¹ s⁻¹, the Kd (De-glycosylated CLEC12A) was 0.27 nM and the koff (De-glycosylated CLEC12A) was 0.000348 s⁻¹. The kon (De-glycosylated CLEC12A) was 1.31e+06 M⁻¹ s⁻¹, the koff (mFc-hNKG2D [6]) was 0.146 s⁻¹ and the kon (mFc-hNKG2D [6]) was 188000 M⁻¹ s⁻¹.
